Experimental findings from the RNAGym collection of RNA variant scans (doi:10.7554/elife.80360) are described below.

B1: Hairpin Ribozyme (parent)
chain: GUCCUCUUUCACGUGCGCGUGAAAGAGAGAAGUGAACCAGAGAAACACACGUUGUGGUAUAUUACCUGGUA

Variants of B1 are the subject of the data set. The data set is described as follows: self-cleavage, relative activity (ratio to wild type); higher = more cleavage; co-transcriptional.
With C37A G40U, the self-cleavage is 0.129. The figure for A39U C66U is 0.213; for C38A A43C it is 0.0755.

Turning to C38A A43G, the self-cleavage was found to be 0.0867. The figure for A39C G56A is 0.193; for C38A G56C it is 0.136.

Consider C38A G56A, for which the self-cleavage amounted to 0.178. The figure for C37U U70G is 0.505. A39C G69A: the self-cleavage was 0.168. Regarding A36U, the self-cleavage came to 0.602. The figure for C38U A61U is 0.164; for A36U C48U it is 0.0683. For C38A U60C, the self-cleavage turned out to be 0.251. The same measure for C37U C50U: 0.289; for C37U C50A: 0.116.

Take C37G C48G: the self-cleavage was 0.0962. The figure for C38U A59C is 0.228. The figure for A39U A45U is 0.142. With A39U U53C, the self-cleavage amounted to 0.508.

Turning to C37A A49U, the self-cleavage came to 0.0951. Consider A39C U53C, for which the self-cleavage is 0.42. For C38U G57C, the self-cleavage came to 0.182.

C38G C66U: the self-cleavage was 0.21. Take C38G C66G: the self-cleavage was 0.0755.

In the case of C38G C66A, the self-cleavage turned out to be 0.151. The same measure for C37A G42U: 0.165; for C38U U67G: 0.204.

Consider A39G A41C, for which the self-cleavage is 0.267. In the case of C37G U58A, the self-cleavage was determined as 0.202. The figure for C37G U58C is 0.335; for A39C U58C it is 0.568; for A36U C50A it is 0.242. Consider C37A G68U, for which the self-cleavage was 0.332.

On to C38A U62G, for which the self-cleavage came to 0.139. The figure for C38U U52C is 0.598; for A36U G57U it is 0.209; for A36U G57A it is 0.108. With C37A G57A, the self-cleavage came out at 0.145. The same measure for C37A G57U: 0.142; for C37A A71G: 0.323; for A39C C65U: 0.401.

As for A39C C65G, the self-cleavage was 0.167. The figure for G40A A41G is 0.263.

For G40A A41U, the self-cleavage was 0.608. Consider C37G G54A, for which the self-cleavage was determined as 0.173. For the variant C37U G54U, the self-cleavage was 0.443. Turning to C37U G54A, the self-cleavage is 0.397. For C37A C65G, the self-cleavage is 0.124. Turning to C37U A39C, the self-cleavage is 0.0611. The same measure for C38G A64G: 0.118; for C38G A64C: 0.0814; for C37G U60A: 0.197. The figure for C37G U60G is 0.245. The same measure for C37G A47U: 0.113; for C38G A45U: 0.156; for C37U U52C: 0.651. As for C37U U52G, the self-cleavage was 0.527. As to G40A A44G, the self-cleavage was 0.144. In the case of G40A A44C, the self-cleavage turned out to be 0.161.

As to C37G A59G, the self-cleavage amounted to 0.0514. The same measure for C37G A59C: 0.0453; for C38U U58A: 0.333; for C37G A41G: 0.369.

For the variant C37G A41C, the self-cleavage turned out to be 0.282. The same measure for G40A A43C: 0.147; for A39U U62A: 0.126; for C38G A44U: 0.207. The same measure for C38A G51A: 0.349; for G40A A59C: 0.121; for A36U A41U: 0.868. As to C38A U53G, the self-cleavage was 0.0628. The figure for A39C G68C is 0.191; for C37A A61C it is 0.136; for C37A A61U it is 0.142. The same measure for A39C U67G: 0.548; for A39U U70C: 0.247.

In the case of C37G U63A, the self-cleavage came to 0.172. On to C37G U63G, for which the self-cleavage turned out to be 0.129. The figure for C37A U53C is 0.515; for C37A U53A it is 0.356; for C37U U62C it is 0.0928. The same measure for A39U A61U: 0.125; for A39U A61G: 0.0916. The same measure for G40A: 0.329. A36U G40C: the self-cleavage came to 0.101. The same measure for A36U G40U: 0.126; for C38G U52G: 0.0784. The figure for C38G U52C is 0.224.

Consider C38G U52A, for which the self-cleavage was found to be 0.169. The figure for C37G A49U is 0.153; for C37U A64G it is 0.456.

C37U A64U: the self-cleavage was found to be 0.242. For C37U G57U, the self-cleavage is 0.221. The same measure for C37U G57C: 0.156. Consider C38U C50A, for which the self-cleavage was found to be 0.207. The figure for A39C A64C is 0.193; for C38G it is 0.181; for C38U it is 0.497. As to C38A, the self-cleavage turned out to be 0.171.

A39U A49G: the self-cleavage amounted to 0.169. The same measure for A39C C48G: 0.256; for C37G G56U: 0.0996; for C38G A61C: 0.133.

Consider C37G C66U, for which the self-cleavage turned out to be 0.286. As to C38G A47C, the self-cleavage was determined as 0.128.

As for C38G A47G, the self-cleavage came out at 0.116. Regarding C38U C46G, the self-cleavage worked out at 0.123. The same measure for C37A A39C: 0.128. Turning to C37A U62C, the self-cleavage is 0.196. Take C38U G40C: the self-cleavage was 0.118.

For the variant A36U A44U, the self-cleavage came to 0.285. The same measure for A39U A44C: 0.127. As for A39U A44U, the self-cleavage came to 0.102. The same measure for C37A G51U: 0.563. For C38U A39C, the self-cleavage was determined as 0.152. On to C37U C38A, for which the self-cleavage was found to be 0.145. The figure for A39C C66A is 0.152; for C38U U55G it is 0.137; for C38A U67C it is 0.0697. In the case of C37U A41C, the self-cleavage is 0.567.

For the variant C38A A47G, the self-cleavage was determined as 0.106. Regarding A39G U53A, the self-cleavage turned out to be 0.295. On to C38U G69C, for which the self-cleavage was determined as 0.158.

As for A36U U62G, the self-cleavage came to 0.216. The figure for A36U U62A is 0.154; for C38U A47G it is 0.163; for C38U A47C it is 0.276. The same measure for A39U U67A: 0.73.

As for A39U U67C, the self-cleavage was determined as 0.286. The same measure for A39G U52G: 0.3.

For the variant A39G U52C, the self-cleavage stood at 0.26. The same measure for A39U U52G: 0.252; for A39U U52A: 0.406; for C38G G51A: 0.271. The same measure for C38G G51U: 0.312. The figure for G40A A45C is 0.0818.

For the variant C38G C50U, the self-cleavage turned out to be 0.0995. For C37G A64G, the self-cleavage was 0.15. The figure for C37A G69C is 0.467; for C38A A71C it is 0.228; for A39C A43C it is 0.14. With A39C A43U, the self-cleavage worked out at 0.123. Regarding A39C A44U, the self-cleavage amounted to 0.129. Turning to C38U C48A, the self-cleavage worked out at 0.142. The same measure for C37G G68A: 0.14; for C37G C50U: 0.214; for C37G C50A: 0.14. The same measure for C37U U53G: 0.364.

Turning to C37U U53A, the self-cleavage was 0.775.

As for A39C A61C, the self-cleavage turned out to be 0.117. The same measure for C37A U52G: 0.224; for C37U G51U: 0.81; for C38A C66G: 0.114. As for C38U A71G, the self-cleavage was determined as 0.681.

With C37A U58C, the self-cleavage turned out to be 0.349. The same measure for C37A U58G: 0.269; for A36U G68U: 0.118. With C38G U67G, the self-cleavage is 0.124.

Take A39C G51U: the self-cleavage came to 0.64. Regarding A39U C65G, the self-cleavage was determined as 0.232.

Regarding A39G A59C, the self-cleavage stood at 0.122. The figure for A39G A59G is 0.116. The same measure for A36U G42A: 0.115; for A39C U52A: 0.543. The figure for A39G C65G is 0.152; for A39G G42C it is 0.129; for A39G G42U it is 0.107.
